Laboratory results reported in patent KR20110120890A.

Biological target: Her-2 (human) (UniProt P04626)
Assay: antibody titration on FFPE SKBR-3 (positive) and MDA-MB-468 (negative) cells, non-proximal direct VeraTag release with 200 uM methylene blue, multi-parameter curve fit, single site

Kd: 8 µg/mL
Substance: Ab8-Pro11 (monoclonal antibody Ab8 against the cytoplasmic domain of HER2, Lab Vision, conjugated to VeraTag reporter Pro11)
